Bridge positions count the residues as written; N and C are the ends. Square brackets hold non-standard residues; d marks the D form. Primed or numbered codes have the meaning given here. Ends that are not written are not given here. * marks the point of attachment. NMeBn(CF3)2 = C-terminal N-methyl bis(trifluoromethyl)benzyl amide; Glc = O-glucosyl on Ser side chain (Ser(OGlu)/Ser(OGlc)); NH(3,5-(CF3)2-benzyl) = FC(F)(F)c1cc(CN*)cc(C(F)(F)F)c1; OBzl(3,5-(CF3)2) = FC(F)(F)c1cc(CO*)cc(C(F)(F)F)c1; Glc″ = glucosyl on the serine side-chain oxygen; O‑Bzl(CF3)2(3) = C-terminal O-Bzl(CF3)2 ester; NH‑Bn(CF3)2 = C-terminal Bn(CF3)2 amide; OBn(OMe)2 = C-terminal OBn(OMe)2 ester; Dmt = Cc1cc(O)cc(C)c1C[C@H](N)C(=O)O; dPen = CC(C)(S)[C@@H](N)C(=O)O; Nle = CCCC[C@H](N)C(=O)O; Aib = CC(C)(N)C(=O)O; GABA = NCCCC(=O)O
Legend:
[1] = target: δ opioid receptor of the mouse isolated vas deferens (mouse), P32300; test: cell-based or functional assay
[2] = target: guinea pig NK1 receptor (guinea pig) (UniProt P30547); test: cell-based or functional assay
[3] = target: δ opioid receptor of the mouse isolated vas deferens (mouse) (UniProt P32300); test: cell-based or functional assay
[4] = target: µ opioid receptor of the guinea pig isolated ileum (guinea pig) (UniProt P97266); test: cell-based or functional assay
rat NK1 receptor (rat) [5] = target: rat NK1 receptor (rat) (UniProt P14600); test: competition vs [3H]Substance P, rNK1 CHO cell membranes
[6] = target: human NK1 receptor (human) (UniProt P25103); test: competition vs [3H]Substance P, hNK1 CHO cell membranes
[7] = target: rat µ opioid receptor (rat) (UniProt P33535); test: radioligand competition vs [3H]DAMGO, membranes of rMOR cells
[8] = target: human NK1 receptor (human) (UniProt P25103); test: radioligand competition vs [3H]substance P, membranes of hNK1 CHO cells
[9] = target: rat µ opioid receptor (rat) (UniProt P33535); test: cell-based or functional assay
rat NK1 receptor (rat) [10] = target: rat NK1 receptor (rat) (UniProt P14600); test: radioligand competition vs [3H]substance P, membranes of rNK1 CHO cells

Sequence of µ opioid receptor of the guinea pig isolated ileum (guinea pig) (P97266 whole entry): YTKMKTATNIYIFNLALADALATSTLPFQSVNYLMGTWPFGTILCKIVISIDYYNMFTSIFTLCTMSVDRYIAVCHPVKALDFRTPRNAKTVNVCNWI
Sequence of δ opioid receptor of the mouse isolated vas deferens (mouse), P32300 (P32300 whole entry, stated change not applied): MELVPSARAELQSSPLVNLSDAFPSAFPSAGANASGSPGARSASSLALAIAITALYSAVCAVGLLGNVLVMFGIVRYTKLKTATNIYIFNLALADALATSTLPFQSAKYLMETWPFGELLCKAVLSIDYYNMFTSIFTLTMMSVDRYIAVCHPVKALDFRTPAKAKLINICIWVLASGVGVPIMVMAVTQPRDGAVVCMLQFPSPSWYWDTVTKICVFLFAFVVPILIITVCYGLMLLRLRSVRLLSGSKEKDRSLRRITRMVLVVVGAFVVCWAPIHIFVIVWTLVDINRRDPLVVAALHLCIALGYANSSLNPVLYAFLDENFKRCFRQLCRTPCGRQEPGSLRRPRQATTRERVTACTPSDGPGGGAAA
Sequence of δ opioid receptor of the mouse isolated vas deferens (mouse) (P32300 whole entry, stated change not applied): as above
Sequence of guinea pig NK1 receptor (guinea pig) (P30547 whole entry): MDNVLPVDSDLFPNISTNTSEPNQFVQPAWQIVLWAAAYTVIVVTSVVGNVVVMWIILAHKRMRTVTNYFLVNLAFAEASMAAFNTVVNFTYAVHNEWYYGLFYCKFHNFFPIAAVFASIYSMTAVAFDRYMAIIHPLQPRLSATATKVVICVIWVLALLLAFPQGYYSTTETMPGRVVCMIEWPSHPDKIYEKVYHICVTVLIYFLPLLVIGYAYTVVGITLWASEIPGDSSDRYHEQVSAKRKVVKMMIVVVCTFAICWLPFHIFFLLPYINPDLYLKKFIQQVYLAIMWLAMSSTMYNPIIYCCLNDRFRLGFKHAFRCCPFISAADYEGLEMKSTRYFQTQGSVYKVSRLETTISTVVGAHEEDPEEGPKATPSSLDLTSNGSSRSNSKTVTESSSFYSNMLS
Sequence of rat µ opioid receptor (rat) (P33535 whole entry): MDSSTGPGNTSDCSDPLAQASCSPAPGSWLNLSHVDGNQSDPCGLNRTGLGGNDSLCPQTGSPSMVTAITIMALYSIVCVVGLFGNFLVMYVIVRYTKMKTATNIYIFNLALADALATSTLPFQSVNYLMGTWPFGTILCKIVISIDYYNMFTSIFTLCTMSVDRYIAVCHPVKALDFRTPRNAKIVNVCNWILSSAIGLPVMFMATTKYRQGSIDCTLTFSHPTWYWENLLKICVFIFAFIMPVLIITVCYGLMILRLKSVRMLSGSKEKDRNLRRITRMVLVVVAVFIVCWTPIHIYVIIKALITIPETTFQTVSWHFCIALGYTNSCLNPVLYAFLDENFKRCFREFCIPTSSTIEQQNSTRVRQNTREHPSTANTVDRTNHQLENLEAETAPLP
Sequence of human NK1 receptor (human) (P25103 whole entry): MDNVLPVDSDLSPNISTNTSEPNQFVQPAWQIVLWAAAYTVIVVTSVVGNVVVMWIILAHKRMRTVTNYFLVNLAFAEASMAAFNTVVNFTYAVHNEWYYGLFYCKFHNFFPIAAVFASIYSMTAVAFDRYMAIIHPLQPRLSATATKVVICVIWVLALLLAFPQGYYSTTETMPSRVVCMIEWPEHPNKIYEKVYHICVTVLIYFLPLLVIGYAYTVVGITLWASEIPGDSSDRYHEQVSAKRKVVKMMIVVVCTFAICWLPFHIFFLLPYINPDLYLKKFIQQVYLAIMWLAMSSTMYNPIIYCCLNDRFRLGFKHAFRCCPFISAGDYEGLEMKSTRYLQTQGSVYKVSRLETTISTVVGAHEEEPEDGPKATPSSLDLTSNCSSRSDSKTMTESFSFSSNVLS
Sequence of rat NK1 receptor (rat) (P14600 whole entry): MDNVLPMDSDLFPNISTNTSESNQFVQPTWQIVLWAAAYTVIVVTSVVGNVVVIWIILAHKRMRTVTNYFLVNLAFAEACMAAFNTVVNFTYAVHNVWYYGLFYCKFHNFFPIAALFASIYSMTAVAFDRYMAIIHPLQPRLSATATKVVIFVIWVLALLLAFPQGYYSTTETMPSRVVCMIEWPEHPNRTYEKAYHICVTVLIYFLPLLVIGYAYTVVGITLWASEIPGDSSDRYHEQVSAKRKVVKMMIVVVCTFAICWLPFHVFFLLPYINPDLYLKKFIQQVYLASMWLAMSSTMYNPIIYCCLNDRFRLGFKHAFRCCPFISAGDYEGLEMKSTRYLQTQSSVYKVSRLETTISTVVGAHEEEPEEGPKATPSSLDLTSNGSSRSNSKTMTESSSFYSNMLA

Y[dA]GF[Nle]PS(Glc)W-{NH‑Bn(CF3)2} [TyrDAlaGlyPheNleProSer(OGlu)TrpNHBn(CF3)2 (TY041)] showed an MVD opioid(delta) agonist IC50 [1] of 12.7 nM.

Work on Y[dA]GF[Nle]PLS(Glc)W-{NH‑Bn(CF3)2} [TyrDAlaGlyPheNleProLeuSer(OGlu)TrpNHBn(CF3)2 (TY055)] yielded an MVD opioid(delta) agonist IC50 [1] of 17.4 nM.

With H-Y[dA]GFMPLW-{OBzl(3,5-(CF3)2)} (also: TFA salt) [H-Tyr-D-Ala-Gly-Phe-Met-Pro-Leu-Trp-O-3,5-Bzl(CF3)2] the MVD (δ) opioid agonist IC50 [1] was 22.3 nM.

Work on Y[dA]GF[dA]W-{O‑Bzl(CF3)2(3)} [Tyr-DAla-Gly-Phe-D-Ala-Trp-O-Bzl(CF3)2 (NP40)] yielded a GPI/LMMP SP antagonist Ke [2] of 608 nM, an MVD δ-agonist IC50 [3] of 58 nM and a GPI/LMMP µ-agonist IC50 [4] of 528 nM.

For [Dmt][dA]GFMPLW-{NH(3,5-(CF3)2-benzyl)} [DmtDAlaGlyPheMetProLeuTrpNHBn(CF3)2 (TY032)], the MVD opioid(delta) agonist IC50 [1] was 1.82 nM.

Y[dA]GFMPLW-{NMeBn(CF3)2} [TyrDAlaGlyPheMetProLeuTrpNMeBn(CF3)2 (TY028)] gave an MVD opioid(delta) agonist IC50 [1] of 11.2 nM.

Work on Y[dA]GFGW-{O‑Bzl(CF3)2(3)} [Tyr-DAla-Gly-Phe-Gly-Trp-O-Bzl(CF3)2 (NP30)] yielded a GPI/LMMP SP antagonist Ke [2] of 58.9 nM, an MVD δ-agonist IC50 [3] of 20.9 nM and a GPI/LMMP µ-agonist IC50 [4] of 25.7 nM.

Y[dA]GF[Nle]S(Glc″)LW-{NH‑Bn(CF3)2} [TyrDAlaGlyPheNleSer(OGlu)LeuTrpNHBn(CF3)2 (TY044)] gave an MVD opioid(delta) agonist IC50 [1] of 18 nM.

H-Y[dA]GF[dF]PLW-{OBzl(3,5-(CF3)2)} (also: TFA salt) [H-Tyr-D-Ala-Gly-Phe-D-Phe-Pro-Leu-Trp-O-3,5-Bzl(CF3)2] showed an MVD (δ) opioid agonist IC50 [1] of 412 nM.

B1: TyrDAlaGlyPheMet(O)ProLeuTrpOBn(CF3)2 (TY023) (peptide)
peptide: YAGFMPLW
modifications: here or on the partner: D-Ala at 2; Met(O) (oxidized methionine) at 5; C-terminal O-3,5-Bn(CF3)2 ester
In the case of B1, the MVD opioid(delta) agonist IC50 [1] is reported as 33 nM.

With H-Y[dA]GFLPLW-{OBzl(3,5-(CF3)2)} (also: TFA salt) [H-Tyr-D-Ala-Gly-Phe-Leu-Pro-Leu-Trp-O-3,5-Bzl(CF3)2] the MVD (δ) opioid agonist IC50 [1] was 101 nM.

Work on Y[dPen]GF[Nle]P[dPen]W-{NH(3,5-(CF3)2-benzyl)} (disulfide 2-7) [Tyr[DPenGlyPheNleProDPen]TrpNHBn(CF3)2] yielded a Ki (rat NK1 receptor (rat) [5]) of 26 nM and a Ki [6] of 1.9 nM.

In the case of Y[dA]GF[GABA]W-{O‑Bzl(CF3)2(3)} [Tyr-DAla-Gly-Phe-γ-Abu-Trp-O-Bzl(CF3)2 (NP34)], the GPI/LMMP SP antagonist Ke [2] is reported as 0.96 nM, the MVD δ-agonist IC50 [3] is reported as 67.9 nM and the GPI/LMMP µ-agonist IC50 [4] is reported as 200 nM.

B2: H-Tyr-D-Ala-Gly-Phe-Nle-Pro-Leu-Trp-O-3,5-Bzl(CF3)2 (peptide)
peptide: YAGFXPLW
modifications: here or on the partner: D-Ala at 2; Nle (norleucine, written X) at 5; C-terminal 3,5-bis(trifluoromethyl)benzyl ester
Binder B2 has an MVD (δ) opioid agonist IC50 [1] of 16.8 nM.

In the case of Y[dC]GFMPLW-{OBzl(3,5-(CF3)2)} [TyrDCysGlyPheMetProLeuTrpOBn(CF3)2 (TY031)], the MVD opioid(delta) agonist IC50 [1] is reported as 235 nM.

Binder Y[dC]GF[Nle]PCW-{NH(3,5-(CF3)2-benzyl)} (disulfide 2-7) [Tyr[DCysGlyPheNleProCys]TrpNHBn(CF3)2 (TY035)] has an MVD opioid(delta) agonist IC50 [1] of 84.7 nM.

With Y[dA]GFMPLW-{NH(3,5-(CF3)2-benzyl)} [TyrDAlaGlyPheMetProLeuTrpNHBn(CF3)2 (TY027)] the MVD opioid(delta) agonist IC50 [1] was 14.5 nM.

Binder Y[dA]GF[Aib]W-{O‑Bzl(CF3)2(3)} [Tyr-DAla-Gly-Phe-Aib-Trp-O-Bzl(CF3)2 (NP41)] has an MVD δ-agonist IC50 [3] of 36.2 nM.

With Y[dA]GFW-{OBzl(3,5-(CF3)2)} [Tyr-D-Ala-Gly-Phe-Trp-O-3′,5′(CF3)2-Bzl (NP36)] the GPI SP-antagonist Ke [2] was 38 nM and the MVD δ-agonist IC50 [3] was 43.1 nM.

Y[dC]GF[dC]PLW-{NH(3,5-(CF3)2-benzyl)} (disulfide 2-5) [Tyr[DCysGlyPheDCys]ProLeuTrpNHBn(CF3)2 (TY037)] showed an MVD opioid(delta) agonist IC50 [1] of 8.28 nM.

In the case of Y[dPen]GF[Nle]P[dPen]W-{NH‑Bn(CF3)2} (disulfide 2-7) [Tyr[DPenGlyPheNleProDPen]TrpNHBn(CF3)2 (TY048)], the Ki [7] is reported as 998 nM, the Ki [8] is reported as 1.9 nM and the GTP binding rMOR EC50 [9] is reported as 135 nM. It also gave a GTP binding rMOR Emax [9] of 29% and a Ki (rat NK1 receptor (rat) [10]) of 26 nM.

Work on Y[dA]GFMPLW-{OBn(OMe)2} [TyrDAlaGlyPheMetProLeuTrpOBn(OMe)2 (TY030)] yielded an MVD opioid(delta) agonist IC50 [1] of 12 nM.

Reference: US8026218
